Assay results taken from US20190241662A1 (ADAGENE, published 2019).
Where a chain is given by its changes, count along the chain named. Read-outs that look alike come from different tables or passages of the source. Values belong to the binder of their own block, whether it stands above or below them.

Key:
[1] = molecular target: T1, recombinant human CTLA4 fused with human Fc and His tag (human, UniProt P16410 36-162, limits assumed); assay: competition ELISA: plate-bound human CTLA4-Fc-His, biotinylated CD80 as blocked ligand
T1 construct: Coated in the CD80 ELISA, biotinylated and in solution in the CD86 ELISA; also called biotinylated human CTLA4 fused with human FC and His tag
T1 sequence (looked up): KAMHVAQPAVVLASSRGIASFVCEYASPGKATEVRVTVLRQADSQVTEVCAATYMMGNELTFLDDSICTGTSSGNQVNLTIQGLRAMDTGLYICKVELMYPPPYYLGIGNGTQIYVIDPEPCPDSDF
Procedure: Antibodies were then tested for their ability to block binding of CTLA4 to its cognate ligands CD80 and CD86 by ELISA. […] Plates were blocked with PBS supplemented with 2% (w/v) skim milk at 37° C. for 1 hour. […] Plates were washed four times, and 100 μL HRP-neutravidin (1:1000) was added to each well and incubated at 37° C. for 1 hour. Plates were washed as previously described, and 50 μL TMB substrate solution was added and incubated at room temperature for 5 minutes before the reaction was stopped by 50 μL sulfate acid (2M).

[2] = molecular target: T2, full-length human CTLA4 expressed on cells (human, UniProt P16410 36-223); assay: flow cytometry blocking: HEK293F cells with human CTLA4, 100 nM antibody, then 100 nM CD80-Fc-Bio (blocked ligand); PBSA panel: Mean 157692, 26.3%
T2 construct: whole, on cells; also called HEK293F/hCTLA-4 cells; HEK293F/hCTLA4 cells
T2 sequence (looked up): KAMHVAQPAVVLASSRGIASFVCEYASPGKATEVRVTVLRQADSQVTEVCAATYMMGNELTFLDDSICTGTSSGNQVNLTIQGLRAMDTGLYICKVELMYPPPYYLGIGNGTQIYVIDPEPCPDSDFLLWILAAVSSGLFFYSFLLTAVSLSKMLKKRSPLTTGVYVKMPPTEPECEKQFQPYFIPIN
Procedure: Antibodies were also tested for their ability to block binding of CTLA4 to its cognate ligands CD80 and CD86 by flow cytometry. The plasmid encoding full-length human CTLA4 was transiently expressed in HEK293F cells. Cells were washed with staining buffer (PBSA buffer including 1.76 mM KH₂PO₄, 10.14 mM Na₂HPO₄.12H₂O, 2.68 mM KCl, 136.89 mM NaCl and 1% BSA), and resuspended in staining buffer containing 100 nM test antibodies. […] Cells were washed once, and analyzed by CytoFlex flow cytometry.

[3] = molecular target: T3, full-length mouse CTLA4 expressed on HEK293F cells (mouse, UniProt P09793 36-223); assay: flow cytometry, transfected HEK293F cells, antibody concentration not printed [Cont.]
T3 construct: whole, on cells
Procedure: (§1) The affinities of the antibodies were also assessed against human and mouse CTLA4 transiently expressed on the surface of HEK293F cells (FIG. 2). Briefly, HEK293F cells were transfected with a plasmid expressing full-length human, monkey or mouse CTLA4 from a bicistronic IRES vector also encoding EGFP, and EGFP expression was used to identify the transfected cells. After 48 hours, the mammalian cell suspension (2×10⁵/well) was transferred to an Eppendorf tube, centrifuged, the supernatant was discarded, the cells were resuspended with 1 mL PBSA (to a density is 4×10⁶ cells/mL), and added to a 96 well plate. […] The cells were then washed once prior to analysis by flow cytometry (Beckman® CytoFlex).

[4] = molecular target: T2, full-length human CTLA4 expressed on …; assay: as above
Procedure: as §1

mouse CD86 = molecular target: T4, mouse CD86 (mouse, UniProt P42082 24-244, limits assumed); assay: yeast-display flow cytometry, Normalized FACS Bound
T4 sequence (looked up): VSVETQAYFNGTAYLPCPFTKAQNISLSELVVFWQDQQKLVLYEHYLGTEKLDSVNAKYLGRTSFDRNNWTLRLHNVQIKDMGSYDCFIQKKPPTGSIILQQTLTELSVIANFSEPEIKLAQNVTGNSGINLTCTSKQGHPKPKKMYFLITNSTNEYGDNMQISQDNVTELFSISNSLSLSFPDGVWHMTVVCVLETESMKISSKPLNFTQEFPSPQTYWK

human CD80 = molecular target: T5, human CD80 (human, UniProt P33681 35-242, limits assumed); assay: as above
T5 construct: constructs not described; also called biotinylated CD80; CD80-Fc-Bio
T5 sequence (looked up): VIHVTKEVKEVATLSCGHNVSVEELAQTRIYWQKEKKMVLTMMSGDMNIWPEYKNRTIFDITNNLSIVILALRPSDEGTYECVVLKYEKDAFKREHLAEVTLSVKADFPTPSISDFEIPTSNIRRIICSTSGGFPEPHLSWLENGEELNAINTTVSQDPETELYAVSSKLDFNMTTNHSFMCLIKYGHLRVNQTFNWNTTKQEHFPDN

human CD86 = molecular target: T6, human CD86 (human, UniProt P42081 24-247, limits assumed); assay: as above
T6 construct: constructs not described; also called recombinant human CD86 fused with human Fc; CD86-Fc-Bio
T6 sequence (looked up): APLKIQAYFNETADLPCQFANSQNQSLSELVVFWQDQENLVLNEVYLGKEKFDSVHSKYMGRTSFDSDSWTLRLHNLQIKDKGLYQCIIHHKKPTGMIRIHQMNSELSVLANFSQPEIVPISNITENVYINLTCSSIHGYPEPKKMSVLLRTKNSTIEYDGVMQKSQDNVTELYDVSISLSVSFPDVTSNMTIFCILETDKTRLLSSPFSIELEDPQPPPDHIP

[5] = molecular target: mouse CTLA4 (SPR analyte, construct not stated) (mouse, UniProt P09793 36-162, limits assumed); assay: SPR (Biacore T200), IgG captured by anti-human Fc
From the text: (§2) Binding affinity and kinetics of antibodies against human, monkey and mouse CTLA4 were examined (Table 4) by surface plasmon resonance (SPR) analysis using a Biacore™ T200 instrument (Biacore AB, Uppsala, Sweden) according to the manufacturer's guidelines. Anti-Human IgG (Fc) antibody from Human Antibody Capture Kit (GE BR-1008-39) was immobilized on CM5 chips by coupling of its amine groups onto carboxylated surfaces of sensor chips according to the instructions of an Amine Coupling kit (GE Biacore #BR-1000-50). […] The association and dissociation curves were fitted to a 1:1 Langmuir binding model using Biacore T200 Evaluation Software (Biacore AB) according to the manufacturer's guidelines.

[6] = molecular target: T7, recombinant human CTLA4 protein (construct not stated) (human, UniProt P16410 36-162, limits assumed); assay: SPR (Biacore T200), IgG captured by anti-human Fc
T7 construct: also called biotinylated human CTLA4; human recombinant CTLA4 proteins
T7 sequence (looked up): T1 sequence (looked up)
From the text: as §2

[7] = molecular target: T8, monkey CTLA4 (SPR analyte, construct not stated) (monkey, UniProt G7PL88 36-161); assay: SPR (Biacore T200), IgG captured by anti-human Fc
T8 sequence: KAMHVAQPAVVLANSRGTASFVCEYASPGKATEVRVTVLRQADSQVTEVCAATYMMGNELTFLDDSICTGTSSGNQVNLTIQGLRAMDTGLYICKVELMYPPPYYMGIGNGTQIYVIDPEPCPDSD
From the text: as §2

[8] = molecular target: T9, recombinant human CTLA4-Fc (human, UniProt P16410 36-162); assay: ELISA; EC50 divided by the EC50 of TY21580
T9 construct: also called human CTLA4 fused with human FC fragment; CTLA4-Fc (Sino Biological, 11159-H03H)
T9 sequence (looked up): T1 sequence (looked up)
Procedure: (§3) Plates were blocked with PBS supplemented with 3% non-fat milk at 37° C. for 1 hour. After washing, 100 μL of 3-fold serial dilutions of antibodies were added to each well. After incubation at 37° C. for 1 hour, plates were washed four times, and 100 μL HRP conjugated anti-human IgG (Fab specific) (1:6000 dilution) was added to each well. Plates were incubated at 37° C. for 1 hour, washed four times, and then 50 μL TMB substrate solution was added to each well, and the plate was incubated at room temperature. […] The EC₅₀ was evaluated by fitting the ELISA data using the asymmetrical sigmoidal (five-parameter logistic equation) model of GraphPad Prism 6 software.

[9] = molecular target: T9, recombinant human CTLA4-Fc; assay: ELISA, coated human CTLA4-Fc (as in Example 8)
Procedure: as §3

[10] = molecular target: T9, recombinant human CTLA4-Fc; assay: ELISA, coated human CTLA4-Fc (as in Example 8); remark: listed apart in the source
Procedure: as §3

IC50 (read off the curve) [1]: ~1 nM | % of cells in upper right quadrant (CD80-positive) in the presence of the antibody [2]: 19.4% | Mean of the CD80 binding signal in the presence of the antibody [2]: 8180 | % of cells in upper right quadrant (Q2) [3]: 32.1% | % of cells in upper right quadrant (Q2) [4]: 27%
B1: TY21588 (antibody, V domains shown)
VH: EVQLVESGGGLVQPGGSLRLSCAASGYSISSGYHWDWIRQAPGKGLEWVSGISGYGGSTYYADSVKGRFTISRDNSKNTLYLQLNSLRAEDTAVYYCARHSYYGSGNFDYWGQGTLVTVSS
VL: DIQLTQSPSSLSASVGDRVTITCRASESVDFFGKSFLHWYQQKPGKAPKLLIYDASNLETGVPSRFSGSGSGTDFTLTISSLQPEDFATYYCQQSYSWPPTFGQGTKVEIKR
notes: human IgG1 (hIgG1) from Fab hit B15732

binding result (mouse CD86): binds | binding result (human CD80): binds | binding result (human CD86): binds
B3: human CTLA4 mutant LGI106AAA displayed on yeast (receptor)
chain: KAMHVAQPAVVLASSRGIASFVCEYASPGKATEVRVTVLRQADSQVTEVCAATYMMGNELTFLDDSICTGTSSGNQVNLTIQGLRAMDTGLYICKVELMYPPPYYAAAGNGTQIYVIDPE

binding result (mouse CD86): binds | binding result (human CD80): binds | binding result (human CD86): binds
B4: YLGIG105FVGMG (receptor, Homo sapiens, UniProt P16410 36-161, looked up)
CTLA4: T8 sequence with N14S, T18I, Y105F, M106V, I108M

Kd [5]: 1.12 nM | Kd [6]: 3.95 nM | Kd [7]: 2.76 nM
B5: TY21692 (antibody, V domains shown)
VH: EVQLVESGGGLVQPGGSLRLSCAASGYSITSGHYWSWIRQAPGKGLEWIGDISHSGSTYYSQSLKSRVTISRDNSKNTLYLQLNSLRAEDTAVYYCARGSRTGYFDYWGQGTLVTVSS
VL: DIQLTQSPSSLSASVGDRVTITCRASQSISSYLNWYQQKPGKAPKLLIYDASNLETGVPSRFSGSGSGTDFTLTISSLQPEDFATYYCQHHYGTPLTFGQGTKVEIKR
notes: human IgG1 (hIgG1) from Fab hit B16083

EC50 [10]: 88.1 nM
B9: TY22871 (antibody, V domains shown)
VH: EVQLVESGGGLVQPGGSLRLSCAASGYSISSGYHWSWIRQAPGKGLEWLARIDWDDDKYYSTSLKSRLTISRDNSKNTLYLQLNSLRAEDTAVYYCARSYVYFDYWGQGTLVTVSS
VL: DIQLTQSPSSLSASVGDRVTITCRASQSVRGRFLAWYQQKPGKAPKLLIYDASNRATGIPSRFSGSGSGTDFTLTISSLQPEDFATYYCQQSSSWPPTFGQGTKVEIKR

The next lines start with the binder.

B2: human CTLA4 mutant ADSQVT42TNDQMT displayed on yeast (receptor)
chain: B3 chain with A42T, D43N, S44D, V46M, A106L, A107G, A108I
notes: also called human CC' loop motif changed to the mouse motif
binding result (mouse CD86): binds | binding result (human CD80): binds | binding result (human CD86): binds

B6: TY22775 (antibody, V domains shown)
VH: B9 VH
VL: EVGHSDCDAFYPYCDSSGRSAGGGGTPLGLAGSGGSDIQLTQSPSSLSASVGDRVTITCRASQSVRGRFLAWYQQKPGKAPKLLIYDASNRATGIPSRFSGSGSGTDFTLTISSLQPEDFATYYCQQSSSWPPTFGQGTKVEIKR
masking efficiency [8]: 168 | EC50 [9]: 37.3 nM

B7: TY22776 (antibody, V domains shown)
VH: B9 VH
VL: B6 VL with H4S, D8V, A9P, F10Y, P12Y, Y13A, D15A, S16Y
masking efficiency [8]: 296 | EC50 [9]: 65.9 nM

B8: TY22864 (antibody, V domains shown)
VH: B9 VH
VL: B9 VL
EC50 [10]: 117 nM
